For 17 sequences, protein production results are on record in a protein production outcome set (Wang et al. 2014).

The nature of this data set: label from the status in PepcDB records.

“MTILENIRGPRDLKALSEAELGELSDEIRDFLVHAVARTGGHLGPNLGVVELTVALHRVFESPDDRILWDTGHQSYVHKLLTGRQDFSKLRSKGGLSGYPSREESAHDVIENSHASTVLGWADGLAKARQVQGERSHVVAVIGDGALTGGMAWEALNNIAAARDRPLIIVVNDNERSYAPTIGGLANHLATLRTTDGYERALAWGKDVLQRTPVVGHTVYEALHGAKKGFKDAFAPQGLFEDLGLKYLGPIDGHDIGAVESALRRAKRFHGPVLVHCLTEKGRGYEPALRDEEDHFHTVGVMDPLTCEPLGPAGGPSWTSVFGEEIVRIGEERADVVAITAAMLHPVGLAPFAERFPDRVWDVGIAEQHAAVSAAGLATGGLHPVVAVYATFLNRAFDQLLMDVALHRCGVTFVLDRAGVTGVDGASHNGMWDMSVLQVVPGLRIAAPRDADQLRTQLREAVAVDDAPTLLRFPKESVGPAVPAVDRIGGLDVLHTADRSEVLLVAVGVMAPVCLGAAELLEARGIGCTVVDPRWVKPVDPALAPLAARHRLVAVVEDNSRAAGVGSAVALALGDAEVDVPVRRFGIPEQFLAHAKRAEVLADIGLTPVDVAGRIAASLALAEPAGDRAGGPAVEQPGDGRMSGDGRIVMPAQGEN”: the protein production entry is on record as “failed”.

Take “MTIMLTPMQTEEFRSYLTYTTKHYAEEKVKAGTWLPEDAQLLSKQVFTDLLPRGLETPHHHLWSLKLNEKDIVGWLWIHAEPEHPQQEAFIYDFGLYEPYRGKGYAKQALAALDQAARSMGIRKLSLHVFAHNQTARKLYEQTGFQETDVVMSKKL”: the protein production result is “not failed”.

Regarding “MTIPLIIGGVLLAILILLILVFITKYRTVGPDEALIVTGNWLGGGKNVVTTDDGKKIKIIRGGGTFVVPIMQRAEPLSLLNYKLEVGTRDTYTKQGVPVTVNGVSIIKVGSTIEEVSTAAEQYLGKETEELKVEAKEVLEGHLRAILSSMTVEDAYSNREQFAQKVHEVASTDLKKMGLRIVSFTIKEIMDKNGYLDALGQPQIATVKRDATIANAEREKEARIEKARAEKEAKEAEYQRDAQIAEAEKHKELKVQSYKREQEQARADADLSYELQQAKAQQGVTEEQMRVKIIEREKQIELEEKEIARREKQYDAEVKKKADADRYAVEQSAEAEKVKQIKKADADQYKIEAEARARAEEVRVEGLAKAEIEKAQGQAKAEVQKAQGTAEADVIRLKGLAEAEAKQKIAEAFELYGQAAIMDMVLKMLPSYAKEVASPLSNIDKITVVDTGGGGKNSGAGKVAGYATDLMATMQETLKASSGIDLKELLEGFAGKGAVQQLSSDKPVVSVVEDEKKEVEKDKELEHHHHHH”, the protein production result was “failed”.

As to “MTIPTSYLNHTDAEAARKARATYRDGLVAPTSGIAPGFTQANMIVLPRDWAFDFLLYAQRNPKPCPVLDVSDPGSPTTLLAPGADLRTDLPLYRIWRDGKLAEETADATSAWAERDDLVAFLIGCSFTFETPMVEAGIEIRHMTDKSNVPMYLTNRPCRPAGRLKGNMVVSMRPIPASRVADAATISGRFPAVHGAPVHVGAPEQIGISDLSKPDFGDAVRIEPGEVPVFWACGVTPQAAVMASGVPFAITHAPGHMFITDIPDTAYHALEHHHHHH”, the protein production result is “not failed”.

On to “MTIRISGKSISIGEALRSRVSERTEEVLRKYFDGNYSGHFTLSKDGFGFRTDCALHLDSGITLEAESNAADAYVSADQALVQIEKRLRRYKSRLKDRSSRKAHAEANALAELSTPVDAASYVIEAPGDEEHHEDAYNPVIIAEATTAMKRLSVSEAVVELDLTGAPVVVFLHGSSGRVNIIYRRADGNIGWIDPPVLNGAN”, for which the protein production result was “failed”.

For “MTITNSKAEAWELIGNQFWTIGRVAARPSDRENDIFLENIVPGSTVAVIGASTRFLIEKALERGASVTVFDFSQRMCDDLAEALADRCVTIDLLDITAEIPKELAGHFDFVLNDRLINRFTTEEARRACLGMLSLVGSGTVRASVKLGFYDIDLKLIEYGEQSGTLAKFFDPSDKTFHFREAGDVLDRALVPHGLIDKPTLLEWYRRRGKETRFDDEDVRALLSHDVVNARGYVTLEKAVELPDAPNTMLYQFSRRAG”, the protein production result is given as “not failed”.

“MTIVWRDCFCVRSHSSNGLFMDVENNTAFWITGYQEARLGPVPEPTFPASETPYVIVRSRYSGISRGTESLVYNNQVPENEYQRMRAPFQEGEFPFPVKYGYASVGEVVDGPEALLGRNVFCLYPHQQRYAVPASAVLPLPAKVPAERAVLAANMETAVNGVWDGQPAVGDRIAVIGLGVVGLLVAWLVNRIPGVELIGVDTNEGRRSVAQALGVRFTTEPDIQNCDLVFHASGHPSGLAKALSLAGTDARVIELSWYGDTPVSVPLGHAFHPNRLTLKSSQVGQLSPERRPRWHHRRRLELALSMLSEPALDALISGESRFEQLPQVAGNILMPGADALCHRIVY”: the protein production entry is “failed”.

For “MTKANWTLSDARDTYAIEHWSDGYFNIAPEGEVVVCPQRGSVEGGVSIAAIARGVRAEGLSLPVLMRFPHILHDRVRLLTSAFGKARAAYHYGAGYTPVYPIKVNQQRNVIENILRAGGVGLEAGSKSELLAILALAESGTIICNGYKDRAYIRLALIGSRLGLRVFIVVEKLSELELVVSESEALGIAPQLGVRIRLSSISAGKWQNSGGEKSKFGLHAGEILKFLKRLERAGGLGWVRLMHFHMGSQVANINDVKTALREASRYYAELRRLGAPVDHVDVGGGLGIDYEGTHSVSDCSINYSVDEYAHSIVRAFSELCAEQGLPQPDLITEAGRAMSAHHAVLVTNVVDIEAATYDASPVSASVAQPLKDLEDLLRRVDSESVLGIYHDAEFDLAETRTMYVQGKIGLDQLAEAERLHATLCREVQQRLDIRLRAHRAVLDELNERLADKLFCNFSVFQSIPDAWAIDQIFPVMPLQRLGEEPTRRAVIQDMTCDSDGRINAYIDRQSIENTLRMHAPAPGEPYLIGFFLVGAYQEILGDMHNLFGDTHSVDVELDGAGGYTFTHTRRGDGADDLLRYVHIDPDELERSYRKKLIEADIPMHQRKQYESELIAGLSNYTYLEELEHHHHHH”, the protein production entry is on record as “not failed”.

Regarding “MTKHRWSPVSSPPSRKPENVQVINLLPVAAGIIAILLALSFFGQVGAALLAITLALILATALNPVARWLERWMPRPAAGALTVLLVVLALVLLGLVAVPPLVSQGSKLTSSLPTSIPELEAQINALIDRYPAINSVLTEASVHRLIQQAGSFAANAAKGLPNIVSTFVGGVFMGLVMLVMVVFVLSNPVPLVNGVLGAVPPRHRLPAARALAQILKQLGGWGRATVLVMLVTGSCTALGLMLLKVDNWLIFGILAALGELVPNIGPIVATIPSVLFAAADDPQKGLYVALFVLVFQQVSGFVLGPFLLGGAGKLHPLSVTVGVLLFGSVFGIVGAFLTVPFLIIIKAIYQEFYLQDAPDIPDAVAMALISGKVEEQLDREEEQREAIDGQLQAARDEELQRQLEEGDLDLAAVLEHPESEPGNETTVEHSQTVISPTAQNPEQK”, the protein production result was “failed”.

As for “MTKIPMFELEEAIDRQPLTVAPTLPVAQVLAVMERQHSSYVLLMESNQTLVGIFTERDLVRLTAIGITITSTPIEEVATSTVTTIQESDIYDVIRTLNLFRQYNVRHLPVVNATHQLIGIMTYEGIRRLLKPIDLLRLWRVSEVMVKSIICADRYQSALSLAELMSDRLISCVVITEKDPSGFPKPIGLVTERDILHLQVQGADLSQTIAADFMGSPPVFIQASDTLWQANQYMRARKIRRLLVVDERNIMVGLLTQTSLIHMIDPVEATLTIETLQQMVGERTVALDAANEKLERKALERKRAKAALQQQIYRERLVNRTAQRIRESLQLDEILVTTVSEVRQFLKAERVLIYRFQPNQQGAIAAESTDSNQTLIQGNAELEAILQEIDPTFYSCDRIHSIPDLQAQGLELTNATLLKRLQLRASLVAPIFAQEILWGLLIVGQNSQPRRWEKLEIDLLKQLATQVGIAIQQARLYAQLAAANQQLLRLAQSDGLTGLANRRHFDQCLDIEWQRAIREQHPLGLILIDIDCFKQFNDTYGHQAGDDCLKAVATALTQVIARPADLVARYGGEEFVVILPNTNEQGILQIAESMRSAVQQLKIPHRSSSVCSSVSLSLGAVTWVPTPHKSPEALIGAADQALYQAKELGRNRVCLGGVRLLETT”, the protein production entry is “failed”.

As to “MTKITVLSGKGGTGKTTVSVNMAKALSESYRVQLLDADVEEPNDHIFFNVDVSFEEPVHLMIPVVDNSVCIRCGECASTCQFGAISVFPSGTFVFESLCHGCGACSIMCPVNAISERPKEIGKIRFGTADGNISFGMGILNIGERTGVPVIRKLKKHIDEKADVVIVDAPPGTSCPVVESLRNTDFALLVTEPTAFGLHDLKLAVELTKEMGIPSGIVVNRYIPGNTIIEEFADEEGIPVLLKIPFKREIASLCAEGKLIVEAFQDMKKDFLELFEKIEVMVRLEHHHHHH”, the protein production entry is reported as “not failed”.

As for “MTKKILTTPIKDEDLADIKAGDIIYLNGHIVTCRDVAHRRLIEGGRELPVNVAGGAILHAGPIVRPIKGTEDKFEMVSVGPTTSMRMEKFEKEFIAKTGVKLIVGKGGMGKGTEEGCMEHKALHCVFPAGCAVVAAVCVEEIEDAQWRDLGMPETLWVCRVKEFGPLIVSIDTHGNNLFEQNKVIFNQRKEIVADEICKHVSFIK”, the protein production result is “failed”.

Regarding “MTKKIVLAGGTGFIGQYLQQRFEENGDEVVIISRRAPHVSWDDSEAVREALEGADMLVNLAGKSVNCRYNEQNKKAILQSRIDTTNILGEAVLACERPPKLWLNSSTATIYRHAEDRAMTEANGELGSGFSENVAKAWEEEFFSFQLPNTRQAALRISIVLGGDGGALTPYRYLTKFGLGGKQGSGKQMVSWIHVEDVFRVIRFIEEQEALEGVINCTSPQPVSNKVLTTAIRRAMNVKVGLPATAWMLEIGTFLLRTESELILKSRWVLPERLLQAGFTFQYETIDDALSEILVQSKSASHLLEHHHHHH”, the protein production result was “failed”.

Take “MTKKKAHKPGSATIALNKRARHEYFIEEEFEAGLALQGWEVKSLRAGKANISDSYVLLRDGEAFLFGANITPMAVASTHVVCDPTRTRKLLLNQRELDSLYGRVNREGYTVVALSLYWKNAWCKVKIGVAKGKKQHDKRSDIKEREWQVDKARIMKNAHR”: the protein production entry is listed as “not failed”.

Consider “MTKKVMIKGDIVDDQTAGFYQFFGMPAVSPSGVADILNDDSGDDDDDGDDEALEVDIASNGGDVFAASEIYTMLKNYAGNVTVNIQGLAASAASVIAMAGDHINISPTAQIMIHKAWSQPAGNADDLEHEASVLNGIDQSIASAYEAKTGMDQADLLQLMANETWLTASDAVDKGFADEIMFANDQQLQPVNAISHIPPKSAVNKLMNLIYKADKDKAKPSKKENTTNGQSAELRNSKLAILFEKNQKEAN”, for which the protein production entry was “failed”.

With “MTKPLILASQSPRRKELLDLLQLPYSIIVSEVEEKLNRNFSPEENVQWLAKQKAKAVADLHPHAIVIGADTMVCLDGECLGKPQDQEEAASMLRRLSGRSHSVITAVSIQAENHSETFYDKTEVAFWSLSEEEIWTYIETKEPMDKAGAYGIQGRGALFVKKIDGDYYSVMGLPISKTMRALRHFDIRA”, the protein production entry is recorded as “not failed”.

Regarding “MTKPMIQIALDQTNLTDAVAVASNVASYVDVIEVGTILAFAEGMKAVSTLRHNHPNHILVCDMKTTDGGAILSRMAFEAGADWITVSAAAHIATIAACKKVADELNGEIQIEIYGNWTMQDAKAWVDLGITQAIYHRSRDAELAGIGWTTDDLDKMRQLSALGIELSITGGIVPEDIYLFEGIKTKTFIAGRALAGAEGQQTAAALREQIDRFWP”, the protein production entry was “not failed”.
